Residue numbers refer to the chain shown, from its start.
B1: 2/99 VH6/VL14 (antibody, V domains shown)
VH: QQLVETGGGLIQPGGSLRLSCAASGFSLSSYAMSWVRQAPGKGLEWIGYIWSGGSTDYADSVKGRFTISRDNSKNTLYLQMNSLRAEDTAVYYCARRYGTSYPDYGDANGFDPWGQGTLVTVSS
VL: DIVMTQSPDSLAVSLGERATINCKSSQSISSYLSWYQQKPGQRPKLLIYRASTLASGVPDRFSGSGSGTDFTLTISSLQAEDVAVYYCQQSYSSSNVDNTFGGGTKVEIK
B2: 2/99 VH21/VL15 (antibody, V domains shown)
VH: QSMQESGPGLVKPSQTLSLTCTVSGFSLSSYAMSWIRQHPGKGLEWIGYIWSGGSTDYASWAKSRVTISVDTSKNQVSLKLSSVTAADTAVYYCARRYGTSYPDYGDANGFDPWGQGTLVTVSS
VL: B1 VL with S34I, R43P, S91A
B3: 2/99 VH12/VL14 (antibody, V domains shown)
VH: QVQLQESGPGLVKPSETLSLTCTVSGFSLSSYAMSWIRQPPGKGLEWIGYIWSGGSTDYNPSLKSRVTISVDTSKNQFSLKLSSVTAADTAVYYCARRYGTSYPDYGDANGFDPWGQGTLVTVSS
VL: B1 VL
B4: 2/99 VH17/VL14 (antibody, V domains shown)
VH: QQLQESGPGLVKPSETLSLTCTVSGFSLSSYAMSWVRQPPGKGLEWIGYIWSGGSTDYNPSLKSRVTISKDTSKNQVSLKLSSVTAADTAVYYCARRYGTSYPDYGDANGFDPWGPGTLVTVSS
VL: B1 VL
B5: 2/99 VH11/VL15 (antibody, V domains shown)
VH: B1 VH with V4L, T6S, I11V, I47V
VL: B1 VL with S34I, R43P, S91A
B6: 2/99 VH18/VL14 (antibody, V domains shown)
VH: B3 VH with E16Q, P40H, N60A
VL: B1 VL
B7: 2/99 VH16/VL14 (antibody, V domains shown)
VH: B4 VH with K70V
VL: B1 VL
B8: 2/99 VH18/VL15 (antibody, V domains shown)
VH: B3 VH with E16Q, P40H, N60A
VL: B1 VL with S34I, R43P, S91A
B9: 2/99 VH20/VL14 (antibody, V domains shown)
VH: B2 VH with S60P, W61S, A62L
VL: B1 VL
B10: 2/99 VH17/VL15 (antibody, V domains shown)
VH: B4 VH
VL: B1 VL with S34I, R43P, S91A
B11: 2/99 VH9/VL15 (antibody, V domains shown)
VH: B1 VH with V4L, T6S, I11V, S27T, L28F, I47V, R96K
VL: B1 VL with S34I, R43P, S91A
B12: 2/99 VH19/VL14 (antibody, V domains shown)
VH: B2 VH with S60P, W61S, A62L, V77F
VL: B1 VL
B13: 2/99 VH1/VL15 (antibody, V domains shown)
VH: B1 VH with Q1V, I47V
VL: B1 VL with S34I, R43P, S91A
B14: 2/99 VH8/VL14 (antibody, V domains shown)
VH: QQLVETGGGLIQPGGSLRLSCAASGFSLSSYAMSWVRQAPGKGLEWIGYIWSGGSTDYASWAKGRFTISKTSTTLYLQMNSLRAEDTAVYYCARRYGTSYPDYGDANGFDPWGQGTLVTVSS
VL: B1 VL
B15: 2/99 VH22/VL15 (antibody, V domains shown)
VH: B2 VH with I36V
VL: B1 VL with S34I, R43P, S91A
B16: 2/99 VH11/VL14 (antibody, V domains shown)
VH: B1 VH with V4L, T6S, I11V, I47V
VL: B1 VL
B17: 2/99 VH13/VL14 (antibody, V domains shown)
VH: B3 VH with F78V
VL: B1 VL
B18: 2/99 VH2/VL15 (antibody, V domains shown)
VH: EVQLVETGGGLIQPGGSLRLSCAASGFSLSSYAMSWVRQAPGKGLEWVGYIWSGGSTDYADSVKGRFTISRDNSKNTLYLQMNSLRAEDTAVYYCARRYGTSYPDYGDANGFDPWGQGTLVTVSS
VL: B1 VL with S34I, R43P, S91A
B19: 2/99 VH21/VL14 (antibody, V domains shown)
VH: B2 VH
VL: B1 VL
B20: 2/99 VH6/VL15 (antibody, V domains shown)
VH: B1 VH
VL: B1 VL with S34I, R43P, S91A
B21: 2/99 VH16/VL15 (antibody, V domains shown)
VH: B4 VH with K70V
VL: B1 VL with S34I, R43P, S91A
B22: 2/99 VH20/VL15 (antibody, V domains shown)
VH: B2 VH with S60P, W61S, A62L
VL: B1 VL with S34I, R43P, S91A
B23: 2/99 VH12/VL15 (antibody, V domains shown)
VH: B3 VH
VL: B1 VL with S34I, R43P, S91A
B24: 2/99 VH15/VL15 (antibody, V domains shown)
VH: B4 VH with K70V, P116Q
VL: B1 VL with S34I, R43P, S91A
B25: 2/99 VH5/VL15 (antibody, V domains shown)
VH: B1 VH with Q2S, L3M, V4E, I47V, Q116P
VL: B1 VL with S34I, R43P, S91A
B26: 2/99 VH22/VL14 (antibody, V domains shown)
VH: B2 VH with I36V
VL: B1 VL
B27: 2/99 VH8/VL15 (antibody, V domains shown)
VH: B14 VH
VL: B1 VL with S34I, R43P, S91A
B28: 2/99 VH23-DANG/VL14 (antibody, V domains shown)
VH: QSMQESGPGLVKPSQTLSLTCTVSGFSLSSYAMSWIRQHPGKGLEWIGYIWSGGSTDYASWAKSRVTISKTSTTVSLKLSSVTAADTAVYYCARRYGTSYPDYGDANGFDPWGQGTLVTVSS
VL: B1 VL
B29: 2/99 VH19/VL15 (antibody, V domains shown)
VH: B2 VH with S60P, W61S, A62L, V77F
VL: B1 VL with S34I, R43P, S91A
B30: 2/99 VH9/VL14 (antibody, V domains shown)
VH: B1 VH with V4L, T6S, I11V, S27T, L28F, I47V, R96K
VL: B1 VL
B31: 2/99 VH13/VL15 (antibody, V domains shown)
VH: B3 VH with F78V
VL: B1 VL with S34I, R43P, S91A
B32: 2/99 VH15/VL14 (antibody, V domains shown)
VH: B4 VH with K70V, P116Q
VL: B1 VL
B33: 2/99 VH7/VL15 (antibody, V domains shown)
VH: B1 VH with D60S, S61W, V62A
VL: B1 VL with S34I, R43P, S91A
B34: 2/99 VH7/VL14 (antibody, V domains shown)
VH: B1 VH with D60S, S61W, V62A
VL: B1 VL
B35: 2/99 VH1/VL17 (antibody, V domains shown)
VH: B1 VH with Q1V, I47V
VL: AIQLTQSPSSLSASVGDRVTITCRASQSISSYLAWYQQKPGKAPKLLIYRASTLASGVPSRFSGSGSGTDFTLTISSLQPEDFATYYCQQTYSSSNVDNTFGGGTKVEIK

The binders below were run against T1, human transferrin receptor (recombinant, for surface plasmon resonance) (human, UniProt P02786 89-760) (assay: SPR 25C).
T1 construct: also called huTfR; human transferrin receptor-biotinylated
T1 sequence (P02786 89-760 limits assumed): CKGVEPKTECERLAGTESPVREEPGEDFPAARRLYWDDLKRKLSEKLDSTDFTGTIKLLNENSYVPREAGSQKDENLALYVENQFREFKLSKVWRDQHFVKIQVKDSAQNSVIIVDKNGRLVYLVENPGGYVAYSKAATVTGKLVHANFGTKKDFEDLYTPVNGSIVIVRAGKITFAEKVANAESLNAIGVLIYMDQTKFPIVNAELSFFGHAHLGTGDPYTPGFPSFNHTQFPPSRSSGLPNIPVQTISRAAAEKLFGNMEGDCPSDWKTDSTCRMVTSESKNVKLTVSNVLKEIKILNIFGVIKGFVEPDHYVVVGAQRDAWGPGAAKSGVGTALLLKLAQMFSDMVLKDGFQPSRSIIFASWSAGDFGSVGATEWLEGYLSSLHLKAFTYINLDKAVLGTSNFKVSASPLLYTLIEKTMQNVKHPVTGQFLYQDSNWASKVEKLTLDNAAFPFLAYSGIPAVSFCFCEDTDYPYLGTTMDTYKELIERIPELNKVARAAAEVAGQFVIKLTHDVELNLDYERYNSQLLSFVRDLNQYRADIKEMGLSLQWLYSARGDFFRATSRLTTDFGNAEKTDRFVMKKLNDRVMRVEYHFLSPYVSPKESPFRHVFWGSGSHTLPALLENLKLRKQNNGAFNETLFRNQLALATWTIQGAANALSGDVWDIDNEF
A koff of 0.0022 s⁻¹ was found for B1 in this work.
A koff of 0.00192 s⁻¹ was found for B2 in this work.
A koff of 0.00546 s⁻¹ was found for B3 in this work.
A koff of 0.00105 s⁻¹ was found for B4 in this work.
A koff of 0.00709 s⁻¹ was found for B5 in this work.
A koff of 0.003 s⁻¹ was found for B6 in this work.
A koff of 0.00175 s⁻¹ was found for B7 in this work.
A koff of 0.00758 s⁻¹ was found for B8 in this work.
A koff of 0.00239 s⁻¹ was found for B9 in this work.
A koff of 0.00156 s⁻¹ was found for B10 in this work.
A koff of 0.00739 s⁻¹ was found for B11 in this work.
A koff of 0.00796 s⁻¹ was found for B12 in this work.
A koff of 0.00669 s⁻¹ was found for B13 in this work.
A koff of 0.00104 s⁻¹ was found for B14 in this work.
A koff of 0.00179 s⁻¹ was found for B15 in this work.
A koff of 0.00351 s⁻¹ was found for B16 in this work.
A koff of 0.00222 s⁻¹ was found for B17 in this work.
A koff of 0.00638 s⁻¹ was found for B18 in this work.
A koff of 0.00103 s⁻¹ was found for B19 in this work.
A koff of 0.00421 s⁻¹ was found for B20 in this work.
A koff of 0.00477 s⁻¹ was found for B21 in this work.
A koff of 0.00785 s⁻¹ was found for B22 in this work.
A koff of 0.00776 s⁻¹ was found for B23 in this work.
A koff of 0.00603 s⁻¹ was found for B24 in this work.
A koff of 0.00637 s⁻¹ was found for B25 in this work.
A koff of 0.00112 s⁻¹ was found for B26 in this work.
A koff of 0.00181 s⁻¹ was found for B27 in this work.
A koff of 0.000733 s⁻¹ was found for B28 in this work.
A koff of 0.001 s⁻¹ was found for B29 in this work.
A koff of 0.00332 s⁻¹ was found for B30 in this work.
A koff of 0.00711 s⁻¹ was found for B31 in this work.
A koff of 0.00194 s⁻¹ was found for B32 in this work.
A koff of 0.00273 s⁻¹ was found for B33 in this work.
A koff of 0.00153 s⁻¹ was found for B34 in this work.
A koff of 0.00756 s⁻¹ was found for B35 in this work.

— patent US20180291110A1 (Hoffmann-La Roche, published 2018)
